Reference: US20240317807A1 (COMPLIX, published 2024)

Legend:
human serum albumin [1] = molecular target: T1, human serum albumin (human, UniProt P02768 25-609); assay: solution ELISA, KD 310 nM against 7.5 nM
T1 construct: also called HSA
Description: (§1) A Nunc plate was blocked O/N with PBS+2% skimmed milk in PBS at 4° C. […] In addition, a ‘calibrator’ dilution series of CPAB (seven 3-fold dilutions starting at 100 nM plus a blank) in 100 mM TRIS+100 mM NaCl+1% BSA at pH 7.4 was prepared. The albumin-CPAB mixtures and the calibrator series were then transferred to the ELISA plate in duplicate (two columns for each series) and incubated for another 30 min at RT while shaking. Detection of plate-bound CPAB was performed with 1/5000 anti-V5-HRP (Invitrogen. R961-25) in PBS+0.1% BSA for 30 min at RT while shaking. After each incubation step, the plate was washed 4× with PBS containing 0.05% Tween 20.

human serum albumin [2] = molecular target: T1, human serum albumin; assay: solution ELISA, free CPAB detected on milk-blocked plate
Description: as §1

mouse serum albumin = molecular target: T2, mouse serum albumin (mouse, UniProt P07724 25-608); assay: as above
T2 construct: also called MSA
T2 sequence (P07724 25-608 limits assumed): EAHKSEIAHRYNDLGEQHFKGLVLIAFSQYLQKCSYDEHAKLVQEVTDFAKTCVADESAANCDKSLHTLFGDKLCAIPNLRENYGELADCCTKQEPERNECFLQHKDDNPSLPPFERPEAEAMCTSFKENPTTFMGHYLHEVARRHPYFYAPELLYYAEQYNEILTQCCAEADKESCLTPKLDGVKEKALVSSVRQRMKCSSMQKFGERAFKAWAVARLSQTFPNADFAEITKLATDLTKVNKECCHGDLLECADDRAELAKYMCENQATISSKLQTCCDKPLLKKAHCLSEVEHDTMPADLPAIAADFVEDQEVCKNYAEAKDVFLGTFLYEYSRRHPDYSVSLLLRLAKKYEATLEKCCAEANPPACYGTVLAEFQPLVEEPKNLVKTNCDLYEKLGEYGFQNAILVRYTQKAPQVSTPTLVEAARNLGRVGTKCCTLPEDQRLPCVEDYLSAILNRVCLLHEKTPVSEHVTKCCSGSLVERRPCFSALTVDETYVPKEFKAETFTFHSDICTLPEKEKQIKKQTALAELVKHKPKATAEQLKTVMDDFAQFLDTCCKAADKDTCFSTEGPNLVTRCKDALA
Description: as §1

[3] = molecular target: MCL-1 (endogenous, in human multiple myeloma cells such as NCI-H929) (human, UniProt Q07820 1-350); assay: cell-based or functional assay
Chain of MCL-1 (endogenous, in human multiple myeloma cells such as NCI-H929) (Q07820 whole entry, the tested form may be a part): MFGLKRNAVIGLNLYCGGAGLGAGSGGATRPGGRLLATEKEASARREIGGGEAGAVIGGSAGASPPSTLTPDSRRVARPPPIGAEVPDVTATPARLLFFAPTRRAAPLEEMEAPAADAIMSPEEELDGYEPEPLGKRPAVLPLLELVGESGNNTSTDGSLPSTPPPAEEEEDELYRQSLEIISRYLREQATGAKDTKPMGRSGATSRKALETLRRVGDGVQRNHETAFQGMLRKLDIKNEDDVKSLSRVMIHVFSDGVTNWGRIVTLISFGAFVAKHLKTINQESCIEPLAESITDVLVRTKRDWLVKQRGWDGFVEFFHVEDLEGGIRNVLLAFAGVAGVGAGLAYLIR

[4] = molecular target: T3, GST-tagged MCL-1 (GST-MCL-1 fusion protein, MCL-1 residues Asp172-Gly327) (human, UniProt Q07820 173-327); assay: solution ELISA, free GST-MCL-1 captured on Alphabody phage
T3 construct: not shown: Glutathione S-transferase fusion partner from the pET42 vector (Novagen)
T3 sequence (Q07820 173-327): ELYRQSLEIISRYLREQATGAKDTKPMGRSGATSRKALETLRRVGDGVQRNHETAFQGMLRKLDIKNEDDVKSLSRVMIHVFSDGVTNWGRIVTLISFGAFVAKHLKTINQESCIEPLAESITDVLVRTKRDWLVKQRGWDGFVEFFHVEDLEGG
Description: A Nunc plate was coated with 1 μg/mL anti-M13 (Fischer Scientific) in PBS for 2 h at room temperature (RT). The plate was then blocked with 2% skimmed milk in PBS for 2 h at RT while shaking. […] After each incubation step, the plate was washed 4× with PBS containing 0.05% Tween 20, except after the incubation step of the mixture and calibrator samples where the plate was washed 12 times. The plate was developed with Sure Blue and the reaction was stopped with H₂SO₄. Optical densities (ODs) were read at 450 nm.

| fold reduction in affinity against the Gly40 form (human serum albumin [1]) | Kd (human serum albumin [2]) | Kd (mouse serum albumin) | in vitro IC50 on MM cell line MOLP-8 [3] | in vitro IC50 on MM cell line NCI-H929 [3] | Kd [4] | Binder |
| --- | --- | --- | --- | --- | --- | --- |
| 40 fold | 310 nM | 2250 nM | 820 nM | 450 nM | 0.028 nM | Alphabody CMPX-383B (designed binder, an engineered disulfide bond links helix E to helix C; Has Ala at the position called 40) MGHHHHHHHHHHSSGHIEGRHGPRPRPRPRPRPRPRPGGMSTEQIQKRTAAIQKRIAAIQKRIYAMTASGGAGAAGAGAGMSIEEITKQIAAIQLRIVGDQVQIAYQTASGAGAGAGGMSTEEIQKQIAAIETQICKIEAAIELKEAGITSDFYFELINKAKTCEAVEALKEHILAAHTPRPRPRPRPRPRPRPGSGKPIPNPLLGLDST |
| – | 7.5 nM | 298 nM | – | – | 0.043 nM | CMPX_383B_Gly40 (designed binder) MGHHHHHHHHHHSSGHIEGRHGPRPRPRPRPRPRPRPGGMSTEQIQKRTAAIQKRIAAIQKRIYAMTASGGAGAAGAGAGMSIEEITKQIAAIQLRIVGDQVQIAYQTASGAGAGAGGMSTEEIQKQIAAIETQICKIEAAIELKEAGITSDFYFELINKAKTCEGVEALKEHILAAHTPRPRPRPRPRPRPRPGSGKPIPNPLLGLDST |
